Data from the supplement of paper PMC10126150.
± gives the standard deviation of the averaged measurements.

The sequences below were run on ATP (assay: switch fluorescence ratio, 500 uM ATP over buffer (Cy3 cluster intensity, sum of 5 cycles each) (fold (ratio)); higher = stronger signal-on switching upon ATP binding; sequences stand for … in TCGTCGGCAGCGTCAGATGTGTATAAGAGACAGTTTTTTTTTTTTTTTTTTTTTTTTT…TC). Settings: aptamer strand: ATP DNA aptamer (quencher-CACCTGGGGGAGTATTGCGGAGGAAGG + anchor), 100 nM annealed; ATP concentration: 500 uM.
In short: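 For every switch-domain sequence, the fluorescence ratio is the mean of per-cluster values, each being summed target-cycle Cy3 intensity over summed buffer-cycle Cy3 intensity. Clusters outside 100-1000 RFU were excluded. On a modified Illumina MiSeq flow-cell, the Cy3-labelled switching-strand clusters were annealed to 100 nM quencher-labelled ATP aptamer, imaged in selection buffer and then after 15 min with 500 uM ATP at 22 °C. Five such cycles were run, with NaOH stripping and re-annealing between them.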
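Also: ATP exposure 15 min at 22 °C before imaging.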

Row | Sequence | switch fluorescence ratio
1 | TTATTTAAAA | 1 ± 0.02
2 | TGGGTAGTTT | 1 ± 0.015
3 | TCGATAAATG | 1.06 ± 0.033
4 | GCAGGTTGT | 1.009 ± 0.0021
5 | GGGATATGTA | 1.01 ± 0.041
6 | CTGGCGGATT | 0.985 ± 0.05
7 | TTGGCGCTGT | 0.971 ± 0.0017
8 | GGAACGTAGG | 1.016 ± 0.0083
9 | TTGGTTGGTT | 0.978 ± 0.019
10 | TGATTCACTG | 0.9907 ± 0.0075
11 | TTTCGGTCAC | 0.983 ± 0.0036
12 | TACGGAAGGA | 1.1 ± 0.021
13 | TGGTGGAAAC | 0.99116 ± 0.00084
14 | AATCCTAGTT | 1.01 ± 0.011
15 | AACCGGTAAT | 1.01 ± 0.022
16 | CTATATGTTG | 0.985 ± 0.053
17 | GCATGGTAGC | 0.994 ± 0.037
18 | AGGAAGTCTG | 1.03 ± 0.035
19 | CCCATCCATC | 1.03 ± 0.029
20 | TACGTTTACG | 1.018 ± 0.0027
21 | CAGTTTTTTC | 1.005 ± 0.0054
22 | ATTGAAGGGC | 0.9661 ± 0.0093
23 | AGCTGTTTC | 1 ± 0.018

Row | Sequence | switch fluorescence ratio
24 | GCAGCTGGGT | 1.064 ± 0.0034
25 | TTCTGGTTAC | 1.059 ± 0.004
26 | TGGGACAGTG | 0.968 ± 0.058
27 | GAGTAAGCAA | 1.64 ± 0.084
28 | ATAAATGACG | 1.02 ± 0.037
29 | GACAATTCTT | 1.006 ± 0.0096
30 | AGGGAGGGTG | 1.02 ± 0.066
31 | TCATGGTATT | 1.01 ± 0.011
32 | ACGGTCATAT | 1.08 ± 0.027
33 | AAGTTGTTCT | 0.997 ± 0.014
34 | TATTAATTCG | 1.01 ± 0.032
35 | CACTTTTTGG | 0.999 ± 0.003
36 | CAATTAGGTC | 0.994 ± 0.024
37 | GGGGGCCCTG | 0.98993 ± 0.0009
38 | AAATAGAAAT | 0.96 ± 0.011
39 | TCTTTTCGTT | 1 ± 0.011
40 | TTTAACAGTA | 1.04 ± 0.044
41 | TAATAGGCAG | 1.01 ± 0.029
42 | CGATGATGGA | 0.999 ± 0.017
43 | ATAGCTACGC | 1.035 ± 0.003
44 | AACTACTTTG | 1 ± 0.03
45 | AATAAATGCT | 0.99 ± 0.036
46 | TATTCACTTG | 1.04 ± 0.025

Row | Sequence | switch fluorescence ratio
47 | GCAGGGGGGT | 1.01 ± 0.034
48 | TTTCCTCTCG | 1.54 ± 0.76
49 | GAAGATGCGG | 1.0002 ± 0.00028
50 | CTATGGGATT | 0.983 ± 0.022
51 | GTGATGACAT | 1 ± 0.013
52 | AGGGTGAGGC | 0.992 ± 0.06
53 | TGAGTATGGT | 1.002 ± 0.0059
54 | AAAGGGAGAA | 0.971 ± 0.011
55 | CGATGGCTA | 0.965 ± 0.041
56 | GAGACCGTGT | 1.01 ± 0.052
57 | GTGTGCCGCA | 0.977 ± 0.031
58 | AATATGAATT | 1.01 ± 0.016
59 | TTCATCGGCT | 1.34 ± 0.51
60 | ACTGGATGCT | 0.995 ± 0.12
61 | CGAGGTAGTT | 0.975 ± 0.026
62 | TTGCAGTGTT | 1.06 ± 0.098
63 | ATTGGGCGCG | 0.995 ± 0.018
64 | TCATTGAAGT | 0.991 ± 0.008
65 | CGATTTGGGT | 1.02 ± 0.042
66 | GAAGAATTAA | 1.0278 ± 0.00043
67 | GGGCCTTTTC | 1 ± 0.056
68 | CTGGGTTGGC | 1.0029 ± 0.00048
69 | CCGCGGCTTG | 1.12 ± 0.053

Row | Sequence | switch fluorescence ratio
70 | ATTTTGGTGA | 1 ± 0.035
71 | ATGACGCTTT | 1.02 ± 0.022
72 | TTTAAGTAGT | 1.01 ± 0.028
73 | CAGCAAAAAG | 0.985 ± 0.025
74 | GCTCCCGGGC | 1.1 ± 0.041
75 | CTATAATGAG | 0.9963 ± 0.0014
76 | CGAGTCAGA | 1.067 ± 0.0096
77 | CGTGATGTTT | 1 ± 0.047
78 | TTCACATTTT | 0.9961 ± 0.0026
79 | GGGGTATGGT | 1 ± 0.036
80 | ATTTTGGGGC | 1.03 ± 0.018
81 | GGCCGTGAGT | 0.996 ± 0.018
82 | TTCGTTTTGG | 1.01 ± 0.038
83 | ATTAAATTGT | 0.9919 ± 0.0062
84 | ATTGCGTGGT | 0.986 ± 0.024
85 | CGCTAGGAGG | 0.997 ± 0.036
86 | CAGGTTAATG | 1.0027 ± 0.00049
87 | TTACACGTTC | 1.03 ± 0.018
88 | GCAAGCTGCA | 1.016 ± 0.0087
89 | TAGCCCTGTG | 1.05 ± 0.014
90 | GACTGGGGGG | 0.997 ± 0.041
91 | TCATAGCGGT | 1.095 ± 0.0014
92 | AGTAGTGTTG | 1.01 ± 0.068

Row | Sequence | switch fluorescence ratio
93 | ACTTTATGTG | 0.996 ± 0.035
94 | TTTTTTTGAA | 0.979 ± 0.02
95 | GACACCAATC | 1.36 ± 0.052
96 | ATAGGTCCGG | 0.9957 ± 0.0041
97 | TTAGCGGTCA | 1.01 ± 0.021
98 | TCCAGGAGGT | 1.02 ± 0.033
99 | GCTTCCTTGG | 1.31 ± 0.079
100 | CAGAGATCTG | 0.9732 ± 0.0053
101 | GCGTTCATGG | 1.04 ± 0.0093
102 | TACGTTTCT | 1 ± 0.054
103 | TTAAATGAAT | 0.991 ± 0.022
104 | TCAATCGGAA | 1.06 ± 0.014
105 | AACGTCTTTG | 0.9977 ± 0.0033
106 | TTGTTAGGAA | 1.01 ± 0.02
107 | TAAGCCGAGG | 0.987 ± 0.016
108 | TAAGCAAAAG | 1.19 ± 0.1
109 | CTGGAAGCTA | 1.6 ± 0.1
110 | TCGGGGAAAT | 1.01 ± 0.023
111 | GAAGTGAGCA | 1.01 ± 0.044
112 | CGACAATGTA | 1.17 ± 0.018
113 | TGAGAAAGGA | 0.99 ± 0.028
114 | ATGAGTAGGG | 1.018 ± 0.0098
115 | GTAAATTTTT | 1.01 ± 0.017

Row | Sequence | switch fluorescence ratio
116 | CACATGTGCC | 1.01 ± 0.021
117 | CATGAAGGGG | 1.02 ± 0.015
118 | TCTTTACGGT | 1.04 ± 0.045
119 | TATATAAGAT | 1 ± 0.058
120 | TTCTTCCTTT | 1.028 ± 0.0051
121 | GCGACTAGGC | 1.03 ± 0.068
122 | TCAATCTGTG | 1.01 ± 0.066
123 | GGTAGTCCAC | 1.01 ± 0.027
124 | CCAGTAGTTA | 0.999 ± 0.015
125 | AAAGCCGGTG | 1.022 ± 0.00024
126 | AGGTATTGGG | 1.02 ± 0.043
127 | GCGAATGCGG | 1.006 ± 0.003
128 | TATTGGGATA | 1.01 ± 0.027
129 | GTTTTACGCG | 1 ± 0.007
130 | TCTAACATGC | 1.15 ± 0.12
131 | GGCTGAGGGA | 1.04 ± 0.037
132 | TTCGCGGGTG | 1.05 ± 0.025
133 | GACCAATATT | 1.134 ± 0.0034
134 | GTGTTTAAGT | 0.962 ± 0.014
135 | TTTGGTTCTT | 1.02 ± 0.033
136 | CTTACTATTG | 1.03 ± 0.05
137 | AATTGTGTTG | 0.98 ± 0.031
138 | TATATTACTG | 1.09 ± 0.12

Row | Sequence | switch fluorescence ratio
139 | GTTGGGATAA | 1 ± 0.038
140 | TGTTCGGGAT | 0.977 ± 0.01
141 | TTCCGACGAT | 3.15 ± 2.3
142 | ATTGTGCTTG | 1 ± 0.027
143 | AGGGGAGAGA | 1.04 ± 0.014
144 | ATTAAGGCTA | 0.983 ± 0.036
145 | TAACTGGCGT | 0.991 ± 0.04
146 | AATGGGTCAT | 1.004 ± 0.0013
147 | GCAGGAAATT | 0.973 ± 0.014
148 | CGTGGTTCAG | 0.996 ± 0.014
149 | TCAGCTCCGT | 1.08 ± 0.025
150 | TAAAAAAGG | 0.997 ± 0.042
151 | ACTATGATCA | 1.02 ± 0.014
152 | GATCTGTGCG | 0.972 ± 0.032
153 | TTAATATTTT | 0.985 ± 0.026
154 | TTCAAAATTA | 0.9913 ± 0.0096
155 | GGAACCATAT | 0.997 ± 0.013
156 | GCTTTTGTAC | 1.05 ± 0.05
157 | CGGGCCTATT | 0.98938 ± 0.00074
